The results in this text go back to paper PMC10615991.

In the assay the target is Recombinant angiotensin-converting enzyme-2 (ACE2) (UniProt Q9BYF1). Kind of assay: LSPR (localized surface plasmon resonance).
Sequence of Recombinant angiotensin-converting enzyme-2 (ACE2) (Q9BYF1 18-805): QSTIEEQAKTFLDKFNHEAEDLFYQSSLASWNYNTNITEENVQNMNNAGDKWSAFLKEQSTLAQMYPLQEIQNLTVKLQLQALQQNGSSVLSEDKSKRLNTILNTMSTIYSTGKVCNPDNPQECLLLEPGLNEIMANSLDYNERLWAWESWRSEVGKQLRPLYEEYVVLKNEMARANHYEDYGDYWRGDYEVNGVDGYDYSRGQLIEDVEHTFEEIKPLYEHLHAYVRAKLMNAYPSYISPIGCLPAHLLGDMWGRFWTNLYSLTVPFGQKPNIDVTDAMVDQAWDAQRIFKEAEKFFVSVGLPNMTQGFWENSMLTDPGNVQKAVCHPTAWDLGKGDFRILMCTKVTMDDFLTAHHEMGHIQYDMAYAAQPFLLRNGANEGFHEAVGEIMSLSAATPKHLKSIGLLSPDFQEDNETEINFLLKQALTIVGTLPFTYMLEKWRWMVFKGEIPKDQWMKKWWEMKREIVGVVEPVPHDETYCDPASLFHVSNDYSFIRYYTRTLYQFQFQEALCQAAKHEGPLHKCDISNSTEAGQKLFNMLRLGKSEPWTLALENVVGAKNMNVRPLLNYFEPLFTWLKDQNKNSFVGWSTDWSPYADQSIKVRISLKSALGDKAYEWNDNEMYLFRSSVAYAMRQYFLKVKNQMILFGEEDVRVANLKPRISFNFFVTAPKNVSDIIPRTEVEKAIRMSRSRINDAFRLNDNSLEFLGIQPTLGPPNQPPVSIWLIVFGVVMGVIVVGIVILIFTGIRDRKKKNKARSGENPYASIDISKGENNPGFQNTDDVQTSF

“SARS-CoV S1 protein (from UniProt P59594 14-667) (domain or fragment)”: the LOD amounted to 0.01 ng/mL; the fold wavelength shift on Au@R/Li against Au@R, at 100 ng/ml was 1.78 fold; the fold wavelength shift on Au@R/Li against Au@R, at 1000 ng/ml was 4.51 fold; the fold wavelength shift on Au@R/Li against Au@R, at 10,000 ng/ml was 1.95 fold.
